Results: a protein production outcome set (Wang et al. 2014)

Assay: label from the status in PepcDB records
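Further: failed if final PepcDB status was selected cloned or expressed and not failed if soluble or beyond.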

| Sequence | protein production |
| --- | --- |
| MGGRVTDVYNAFVPLVHISNNSTSDTNKAKENIISKLLDILSGIFVPIIHAIIGAGLLKGILIFLNFYHLVSPATSTYKLLSVFSDSAFYFMPILLAYSSAKKFKTNKYVAVAIAGILVHPELISMMSKSASVKFFGIPFTSATYSTSVLPIILGVWVMSYIERGLNKIIPKILRTVLVPLFTLLITAPIILGILGPIGTIVGDAIGQGTVQLYLHYGVIAGILVGAAYPFLVIMGMHVGFTPVMVQSLSKYGVDYMMGIFVASNSAEAGATTAVWLKTKNKQLKEIAGSSALNAIIGVTEPALFGVTSKLKKPLIAVSIGGAVGGGIAGLFKVAAQGAGTGPIAGIPLFFGKTFIWFIISCLVSYVVSFILAYVIGFEDIPNPEDLSQKNSMDNHEKIVTTVVANQSVADPVNGNVIPLSEVKDNVFSSKMMGDGAAIVPNDNKIYAPFDGVVELVFETKHAIGLKSYDGCELLIHVGLDTVELKGKHFISHVIKDQKVKKGDLLLEFDREAISKEGYDTTIPVIVTNSKDFENITKTKKKQLQHGEELLKLTAKNKEN | failed |
| MGHGIEVLPDLFCYTIQIVNICFVGNPESNDFVLVDAGMPKCANEIISVAEDRFGTNSRPKAIILTHGHFDHVGGIIELIKYWDVPVYAHQMEIPFLTGQQSYPEPDSTVEGGMIAKMSPLFPNEPIDLGNSIKVLPTDGTVPHMPDFRWIHTPGHTPGHISLFREKDRTLIAGDAFVTVKQEYLYKVITQEQEISGPPRYLTTDWKAAKESVITLEKLKPLSAVTGHGIPMSGELLSTSLKTLAQEFDKIAVPDYGKYVDKKLEHHHHHH | failed |
| MGHHHHHHSHAAAMANNLQKGSAGPMRLYVGSLHFNITEDMLRGIFEPFGRIESIQLMMDSETGRSKGYGFITFSDSECAKKALEQLNGFELAGRPMKVGHVTERTD | not failed |
| MGHHHHHHSHCSSCSTPLYDQGGPVEILPFLYLGSAYHASRKDMLDALGITALINVSANCPNHFEGHYQYKSIPVEDNHKADISSWFNEAIDFIDSIKNAGGRVFVHCQAGISRSATICLAYLMRTNRVKLDEAFEFVKQRRSIISPNFSFMGQLLQFESQVLAPHCSAEAGSPAMAVLDRGTSTTTVFNFPVSIPVHSTNSALSYLQSPITTSPSC | failed |
| MGHHHHHHSHDDLEVGSIYRGKITRVEKYGVFVSLNSHVWGLMRGLFPDYKVGDELFVRVSQVKPYKGEVDMIPASIKGP | not failed |
| MGHHHHHHSHEELPPTTELEEGLRNGVYLAKLAKFFAPKMVSEKKIYDVEQTRYKKSGLHFRHTDNTVQWLRAMESIGLPKIFYPETTDVYDRKNIPRMIYCIHALSLYLFKLGIAPQIQDLLGKVDFTEEEISNMRKELEKYGIQMPSFSKIGGILANELS | failed |
| MGHHHHHHSHELLVVGSRPELGRWEPRGAVRLRPAGTAAGDGALALQEPGLWLGEVELAAEEAAQDGAEPGRVDTFWYKFLKREPGGELSWEGNGPHHDRCCTYNENNLVDGVYCLPIGHWIEATGHTNEMKHTTDFYFNIAGHQAMHYSRILPNIWLGSCPRQVEHVTIKLKHELGITAVMNFQTEWDIVQNSSGCNRYPEPMTPDTMIKLYREEGLAYIWMPTPDMSTEGRVQMLPQAVCLLHALLEKGHIVYVHCNAGVGRSTAAVCGWLQYVMGWNLRKVQYFLMAKRPAVYI | failed |
| MGHHHHHHSHLCTNFFIFTGGPGSGKTAVLNELNTWGYLTVSEVARSIIQKQQADGGDAIHTGNRKAFRDLMLEQSIADYCKMQSEEKIVFFDRGIPDLYGYSKAFCGEASKEVNEAVGRFRYNKTVFIFPPWPEIYENDDERQQDYQEALQTYYAVKEGYFDCGYVLLEVPKCPIKDRANFIFQMISKNG | not failed |
| MGHHHHHHSHMAAPEAEVLSSAAVPDLEWYEKSEETHASQIELLETSSTQEPLNASEAFCPRDCMVPVVFPGPVSQEGCCQFTCELLKHIMYQRQQLPLPYEQLKHFYRKPSPQAEEMLKKKPRATTEVSSRKCQQALAELESVLSHLEDFFARTLVPRVLILLGGNALSPKEFYELDLSLLAPYSVDQSLSTAACLRRLFRAIFMADAFSELQAPPLMGTVVMAQGHRNCGEDWFRPKLNYRVPSRGHKLTVTLSCGRPSIRTTAWEDYIWFQAPVTFKGFRE | failed |
| MGHHHHHHSHMASPSKAVIVPGNGGGDVTTHGWYGWVKKELEKIPGFQCLAKNMPDPITARESIWLPFMETELHCDEKTIIIGHSSGAIAAMRYAETHRVYAIVLVSAYTSDLGDENERASGYFTRPWQWEKIKANCPYIVQFGSTDDPFLPWKEQQEVADRLETKLHKFTDCGHFQNTEFHELITVVKSLLKVPA | failed |
| MGHHHHHHSHMASRVRVTILFATETGKSEALAWDLGALFSCAFNPKVVCMDKYRLSCLEEERLLLVVTSTFGNGDCPGNGEKLKKSLFMLKELNNKFRYAVFGLGSSMYPRFCAFAHDIDQKLSHLGASQLTPMGEGDELSGQEDAFRSWAVQTFKAACETF | failed |
| MGHHHHHHSHMDDIFTQCREGNAVAVRLWLDNTENDLNQGDDHGFSPLHWACREGRSAVVEMLIMRGARINVMNRGDDTPLHLAASHGHRDIVQKLLQYKADINAVNEHGNVPLHYACFWGQDQVAEDLVANGALVSICNKYGEMPVDKAKAPLRELLRERAEK | not failed |
| MGHHHHHHSHMGTKRPAMLDNEADGNKTMIELSDNENPWTIFLETVDPELAASGATLPKFDKDHDVMLFLKMYDPKTR | failed |
| MGHHHHHHSHMKALLSIEMDMQVPFHDVDSMGITWHGNYLRYFEVARCKLLDELGYNYRQMRASNYAWPIIDVQIKYVKPSTFEQHITVRAELVEWENRLKINYQIRDTATGERITKGYTIQAAVDMTSQEMCFVTPEVFRSKIAPLLAKVDNE | not failed |
| MGHHHHHHSHMNLERLRKRVRQYLDQQQYQSALFWADKVASLSREEPQDIYWLAQCLYLTAQYHRAAHALRSRKLDKLYEACRYLAARCHYAAKEHQQALDVLDMEEPINKRLFEKYLKDESGFKDPSSDW | failed |
| MGHHHHHHSHMPVTEKDLAEDAPWKKIQQNTFTRWCNEHLKCVNKRIGNLQTDLSDGLRLIALLEVLSQKRMYRKYHQRPTFRQMQLENVSVALEFLDRESIKLVSIDSKAIVDGNLKLILGLVWTLILHYSISMPVWEDEGDDDAKKQTPKQRLLGWIQNKIPYLPITNFNQNWQDGKALGALVDSCAPGLCPDWESWDPQKPVDNAREAMQQADDWLGVPQVITPEEIIHPDVDEHSVMTYLSQFPKAKLKPGAPLKPKL | not failed |
| MGHHHHHHSHMRPELEDSTLRYLQDLLAWVEENQHRVDGAEWGVDLPSVEAQLGSHRGLHQSIEEFRAKIERARSDEGQLSPATRGAY | failed |
| MGHHHHHHSHMRTISFFNNKGGVGKTTLSTNVAHYFALQGKRVLYVDCDPQCNATQLMLTEEQTESIYLDGLNDEVAERNSLAKTVYAIFVPLREGESQIAAEITPMRSERFGVDVLPGHPALSQIEDLMSDSWQSALGRQTGPFRRIHWAGQLAHAMERDDRYDVIFFDVGPSLGPFNRTVLLGCDAFVTPTATDLFSFHAFGNLARWFDAWVTQYAEIHEGNMAEWKKYS | failed |
| MGHHHHHHSHMTKREYDQCRIQVRLPDGTSLTQTFRAREQLAAVRLYVELHRGEELGGGQDPVQLLSGFPRRAFSEADMERPLQELGLVPSAVLIVAKKCPS | failed |
| MGHHHHHHSHMTLEEFSAGEQKTERMDKVGDALEEVLSKALSQRTITVGVYEAAKLLNVDPDNVVLCLLAADEDDDRDVALQIHFTLIQAFCCENDINILRVSNPGRLAELLLLETDAGPAASEGAEQPPDLHCVLVTNPHSSQWKDPALSQLICFCRESRYMDQWVPVINLPER | failed |
| MGHHHHHHSHMTNTVDSLFDTGLERYKAGEPAADLIPVFKEVCDRAPKASAAWICLAWLYLLEDKPNLALKAAQKAVKINPQDPQARVNLAVAMLETGQKGLRQHIDITQQLMLVNPDWRDEIQNSIADGLSRKPDWQSLAKVKGWLFNE | not failed |
| MGHHHHHHSHMYRYFTPKIVKRALNIWPPFWGAGISIENISSDFQEVSVILKDRFWNRNANRTQYGGSIFSMTDPVFSLMLMGILRDEYYVWDKQSEIDFISPGTTDLHARFVISDEQLAEIKQETKEGEKHFPQFEVYIYDKKGKVVARVNRTLYVRKKPEFR | not failed |
| MGHHHHHHSHPPRDLDSKACISIGNQNFEVKADDLEPIMELGRGAYGVVEKMRHVPSGQIMAVKRIRATVNSQEQKRLLMDLDISMRTVDCPFTVTFYGALFREGDVWICMELMDTSLDKFYKQVIDKGQTIPEDILGKIAVSIVKALEHLHSKLSVIHRDVKPSNVLINALGQVKMCDFGISGYLVDSVAKTIDAGCKPYMAPERINPELNQKGYSVKSDIWSLGITMIELAILRFPYDSWGTPFQQLKQVVEEPSPQLPADKFSAEFVDFTSQCLKKNSKERPTYPELMQHPFFTLHESKGTDVASFVKLILGD | not failed |
| MGHHHHHHSHSIKPSTNLVFAKVLEKTRHPNANHLNLVKVKANQKVYEIVCGANNFSVHNWVVLAKLNAELANGLKITPRELRGYVSNGMLCAYSEINPQATSFLTSTDLDGILVLDDNYDHYKTPNQIFNLDDVILDLSIPSNRNDLNGYFWIAKELCAYFDFEYVVDATINHRPHKEIIDVRI | failed |
| MGHHHHHHSHSVGMDTFIHRIDSTEVIYQPRRKRAKLIGKYLMGDLLGEGSYGKVKEVLDSETLCRRAVKILKKKKLRRIPNGEANVKKEIQLLRRLRHKNVIQLVDVLYNEEKQKMYMVMEYCVCGMQEMLDSVPEKRFPVCQAHGYFCQLIDGLEYLHSQGIVHKDIKPG | failed |
| MGHIKKGELTQEEKELLEVIGKGTVQEAGRLLSSKNVHVNCLDENGMTPLMHAAYKGKLEMCKLLLRHGADASCHQHEHGYTALMFAALSGNKDITWVMLEAGAETDVVNSVGRTAAQMAAFVGQHDCVAIINNFFPRERLDYYTKPQGLDKEPKQPPKLAGPLHKIITTTNLHPVKIVMLVSENPLLADAAALGKCYRVMDLICEKCMKQRDMNEVLAMKMHYISCIFQKCITFLKEGENKLDTLIRSLLKGRASDGFPVYQEKIIRESIRKFPYCEATLLQQLVRSIAPVEIGSDPTAFSVLTQAITGQVGFVDVEFCTTCGEKGASKRCSVCKMVIYCDQTCQKTHWFAHKKMCKSLKDVYEKQQIEAAKHKRQEEKNGNPNVSSNHVNEDQPEAEEGITQENSIPSDSVEGEKEAANDTGLASAQDAPTGPQLSEE | failed |
| MGHKQSVDSRGKGRKVPGSSSMVQKHRVESSGGAIISGPSLFDNLPEDCISNIISFTSPRDACVAASVSKTFESAVNSDSVWDKFLPSDYSSLVPPSRVFSSKKELYFAICDNPVLVEDGGKSFWLEKENGKKCFMLSPKKSMWITWVSTPQYWRWISIPEARFEEVPELLNVCWFEVRGGMNTKELSPGTRYSAYIVFKTKNGCPNLGDVPVEATVGLVGQESSQRHIYFVGPSDQRRDRETRDVTRPTKRKDGWMEAELGQFFNESGCDVVDTSILEIKTPYWKRGLIIQGIEFRPTKSLFYI | not failed |
